Laboratory results from US20200299347A1 (Merck KGaA, published 2020).

Assays:
NGF = assay: cell-based or functional assay
FGFR3 = assay: cell-based or functional assay

NGF, sequence (P01138 122-241): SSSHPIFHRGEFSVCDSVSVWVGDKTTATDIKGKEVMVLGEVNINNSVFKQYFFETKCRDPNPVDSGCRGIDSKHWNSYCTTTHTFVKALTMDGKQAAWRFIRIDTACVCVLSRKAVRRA

B1: FGF18_Fab tanezumab (LH) (other)
light: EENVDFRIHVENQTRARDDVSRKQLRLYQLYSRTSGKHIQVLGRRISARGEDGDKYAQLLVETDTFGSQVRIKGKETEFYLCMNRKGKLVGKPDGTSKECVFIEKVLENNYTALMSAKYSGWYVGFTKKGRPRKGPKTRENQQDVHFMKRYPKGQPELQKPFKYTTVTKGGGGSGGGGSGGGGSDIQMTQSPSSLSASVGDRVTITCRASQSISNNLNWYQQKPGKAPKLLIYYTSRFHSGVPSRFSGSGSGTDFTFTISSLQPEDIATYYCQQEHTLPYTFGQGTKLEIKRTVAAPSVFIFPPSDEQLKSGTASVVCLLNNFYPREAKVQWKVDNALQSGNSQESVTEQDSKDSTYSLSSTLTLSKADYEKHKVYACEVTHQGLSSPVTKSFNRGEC
heavy: QVQLQESGPGLVKPSETLSLTCTVSGFSLIGYDLNWIRQPPGKGLEWIGIIWGDGTTDYNSAVKSRVTISKDTSKNQFSLKLSSVTAADTAVYYCARGGYWYATSYYFDYWGQGTLVTVSSASTKGPSVFPLAPSSKSTSGGTAALGCLVKDYFPEPVTVSWNSGALTSGVHTFPAVLQSSGLYSLSSVVTVPSSSLGTQTYICNVNHKPSNTKVDKKVEPKSC
anti-NGF IC50 (nM), U2OS TrkA_p75 assay; construct from HEK293 (NGF): 0.52 nM
anti-NGF IC50 (nM), U2OS TrkA_p75 assay; construct from expiCHO-S (NGF): 0.86 nM
FGF18 EC50 (nM), BaF3/FGFR3 assay; construct from HEK293 (FGFR3): 0.21 nM
FGF18 EC50 (nM), BaF3/FGFR3 assay; construct from expiCHO-S (FGFR3): 0.08 nM

B2: FGF18_Fab fasinumab (LH) (other)
light: EENVDFRIHVENQTRARDDVSRKQLRLYQLYSRTSGKHIQVLGRRISARGEDGDKYAQLLVETDTFGSQVRIKGKETEFYLCMNRKGKLVGKPDGTSKECVFIEKVLENNYTALMSAKYSGWYVGFTKKGRPRKGPKTRENQQDVHFMKRYPKGQPELQKPFKYTTVTKGGGGSGGGGSDIQMTQSPSSLSASAGDRVTITCRASQAIRNDLGWYQQKPGKAPKRLIYAAFNLQSGVPSRFSGSGSGTEFTLTISSLQPEDLASYYCQQYNRYPWTFGQGTKVEIKRTVAAPSVFIFPPSDEQLKSGTASVVCLLNNFYPREAKVQWKVDNALQSGNSQESVTEQDSKDSTYSLSSTLTLSKADYEKHKVYACEVTHQGLSSPVTKSFNRGEC
heavy: QVQLVQSGAEVKKPGASVKVSCKVSGFTLTELSIHWVRQAPGKGLEWMGGFDPEDGETIYAQKFQGRVTMTEDTSTDTAYMELTSLRSEDTAVYYCSTIFGVVTNFDNWGQGTLVTVSSASTKGPSVFPLAPSSKSTSGGTAALGCLVKDYFPEPVTVSWNSGALTSGVHTFPAVLQSSGLYSLSSVVTVPSSSLGTQTYICNVNHKPSNTKVDKKVEPKSC
anti-NGF IC50 (nM), U2OS TrkA_p75 assay; construct from HEK293 (NGF): 0.54 nM
anti-NGF IC50 (nM), U2OS TrkA_p75 assay; construct from expiCHO-S (NGF): 1.56 nM
FGF18 EC50 (nM), BaF3/FGFR3 assay; construct from HEK293 (FGFR3): 0.27 nM
FGF18 EC50 (nM), BaF3/FGFR3 assay; construct from expiCHO-S (FGFR3): 0.1 nM

B3: FGF18_Fab tanezumab (HL) (other)
heavy: EENVDFRIHVENQTRARDDVSRKQLRLYQLYSRTSGKHIQVLGRRISARGEDGDKYAQLLVETDTFGSQVRIKGKETEFYLCMNRKGKLVGKPDGTSKECVFIEKVLENNYTALMSAKYSGWYVGFTKKGRPRKGPKTRENQQDVHFMKRYPKGQPELQKPFKYTTVTKGGGGSGGGGSQVQLQESGPGLVKPSETLSLTCTVSGFSLIGYDLNWIRQPPGKGLEWIGIIWGDGTTDYNSAVKSRVTISKDTSKNQFSLKLSSVTAADTAVYYCARGGYWYATSYYFDYWGQGTLVTVSSASTKGPSVFPLAPSSKSTSGGTAALGCLVKDYFPEPVTVSWNSGALTSGVHTFPAVLQSSGLYSLSSVVTVPSSSLGTQTYICNVNHKPSNTKVDKKVEPKSC
light: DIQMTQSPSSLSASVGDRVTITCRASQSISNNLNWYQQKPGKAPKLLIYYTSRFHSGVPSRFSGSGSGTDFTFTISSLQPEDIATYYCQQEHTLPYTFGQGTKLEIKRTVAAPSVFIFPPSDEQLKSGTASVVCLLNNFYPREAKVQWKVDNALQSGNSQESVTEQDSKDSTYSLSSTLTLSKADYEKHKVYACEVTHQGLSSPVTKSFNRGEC
anti-NGF IC50 (nM), U2OS TrkA_p75 assay; construct from expiCHO-S (NGF): 0.84 nM
FGF18 EC50 (nM), BaF3/FGFR3 assay; construct from expiCHO-S (FGFR3): 0.05 nM

B4: FGF18_Fab fulranumab (LH) (other)
light: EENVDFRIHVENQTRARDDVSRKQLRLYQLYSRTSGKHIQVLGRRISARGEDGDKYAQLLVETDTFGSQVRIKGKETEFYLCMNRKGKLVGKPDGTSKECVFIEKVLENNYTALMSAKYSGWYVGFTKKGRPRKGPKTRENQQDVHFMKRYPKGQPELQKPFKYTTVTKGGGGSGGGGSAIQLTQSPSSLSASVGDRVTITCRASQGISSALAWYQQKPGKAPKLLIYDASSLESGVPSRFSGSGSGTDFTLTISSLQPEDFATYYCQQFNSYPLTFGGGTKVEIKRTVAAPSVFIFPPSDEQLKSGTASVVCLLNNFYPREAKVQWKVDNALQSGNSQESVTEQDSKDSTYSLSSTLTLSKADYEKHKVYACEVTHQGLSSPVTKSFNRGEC
heavy: EVQLVESGGGLVQPGGSLRLSCAASGFTLRSYSMNWVRQAPGKGLEWVSYISRSSHTIFYADSVKGRFTISRDNAKNSLYLQMDSLRDEDTAMYYCARVYSSGWHVSDYFDYWGQGILVTVSSASTKGPSVFPLAPSSKSTSGGTAALGCLVKDYFPEPVTVSWNSGALTSGVHTFPAVLQSSGLYSLSSVVTVPSSSLGTQTYICNVNHKPSNTKVDKKVEPKSC
anti-NGF IC50 (nM), U2OS TrkA_p75 assay; construct from expiCHO-S (NGF): 1.61 nM
FGF18 EC50 (nM), BaF3/FGFR3 assay; construct from expiCHO-S (FGFR3): 0.07 nM

B5: FGF18 SEED tanezumab (MBE626) (other)
chain: EENVDFRIHVENQTRARDDVSRKQLRLYQLYSRTSGKHIQVLGRRISARGEDGDKYAQLLVETDTFGSQVRIKGKETEFYLCMNRKGKLVGKPDGTSKECVFIEKVLENNYTALMSAKYSGWYVGFTKKGRPRKGPKTRENQQDVHFMKRYPKGQPELQKPFKYTTVTKGGSGGSGSGSEPKSSDKTHTCPPCPAPEAAGGPSVFLFPPKPKDTLMISRTPEVTCVVVDVSHEDPEVKFNWYVDGVEVHNAKTKPREEQYNSTYRVVSVLTVLHQDWLNGKEYKCKVSNKALPAPIEKTISKAKGQPFRPEVHLLPPSREEMTKNQVSLTCLARGFYPKDIAVEWESNGQPENNYKTTPSRQEPSQGTTTFAVTSKLTVDKSRWQQGNVFSCSVMHEALHNHYTQKTISLSPGK
heavy: QVQLQESGPGLVKPSETLSLTCTVSGFSLIGYDLNWIRQPPGKGLEWIGIIWGDGTTDYNSAVKSRVTISKDTSKNQFSLKLSSVTAADTAVYYCARGGYWYATSYYFDYWGQGTLVTVSSASTKGPSVFPLAPSSKSTSGGTAALGCLVKDYFPEPVTVSWNSGALTSGVHTFPAVLQSSGLYSLSSVVTVPSSSLGTQTYICNVNHKPSNTKVDKKVEPKSCDKTHTCPPCPAPEAAGGPSVFLFPPKPKDTLMISRTPEVTCVVVDVSHEDPEVKFNWYVDGVEVHNAKTKPREEQYNSTYRVVSVLTVLHQDWLNGKEYKCKVSNKALPAPIEKTISKAKGQPREPQVYTLPPPSEELALNELVTLTCLVKGFYPSDIAVEWLQGSQELPREKYLTWAPVLDSDGSFFLYSILRVAAEDWKKGDTFSCSVMHEALHNRFTQKSLDRSPGK
light: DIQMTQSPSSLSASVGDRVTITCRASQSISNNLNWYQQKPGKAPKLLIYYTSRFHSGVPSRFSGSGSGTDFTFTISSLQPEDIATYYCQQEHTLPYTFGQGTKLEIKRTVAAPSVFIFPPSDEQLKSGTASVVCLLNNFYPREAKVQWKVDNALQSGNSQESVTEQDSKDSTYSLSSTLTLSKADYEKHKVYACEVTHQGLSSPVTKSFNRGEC
anti-NGF IC50 (nM), U2OS TrkA_p75 assay; construct from expiCHO-S (NGF): 0.44 nM
FGF18 EC50 (nM), BaF3/FGFR3 assay; construct from expiCHO-S (FGFR3): 0.05 nM

B6: FGF18 SEED fulranumab (SEED-B) (other)
chain: EENVDFRIHVENQTRARDDVSRKQLRLYQLYSRTSGKHIQVLGRRISARGEDGDKYAQLLVETDTFGSQVRIKGKETEFYLCMNRKGKLVGKPDGTSKECVFIEKVLENNYTALMSAKYSGWYVGFTKKGRPRKGPKTRENQQDVHFMKRYPKGQPELQKPFKYTTVTKGGGGSGGGGSDKTHTCPPCPAPEAAGGPSVFLFPPKPKDTLMISRTPEVTCVVVDVSHEDPEVKFNWYVDGVEVHNAKTKPREEQYNSTYRVVSVLTVLHQDWLNGKEYKCKVSNKALPAPIEKTISKAKGQPFRPEVHLLPPSREEMTKNQVSLTCLARGFYPKDIAVEWESNGQPENNYKTTPSRQEPSQGTTTFAVTSKLTVDKSRWQQGNVFSCSVMHEALHNHYTQKTISLSPGK
heavy: EVQLVESGGGLVQPGGSLRLSCAASGFTLRSYSMNWVRQAPGKGLEWVSYISRSSHTIFYADSVKGRFTISRDNAKNSLYLQMDSLRDEDTAMYYCARVYSSGWHVSDYFDYWGQGILVTVSSASTKGPSVFPLAPSSKSTSGGTAALGCLVKDYFPEPVTVSWNSGALTSGVHTFPAVLQSSGLYSLSSVVTVPSSSLGTQTYICNVNHKPSNTKVDKKVEPKSCDKTHTCPPCPAPEAAGGPSVFLFPPKPKDTLMISRTPEVTCVVVDVSHEDPEVKFNWYVDGVEVHNAKTKPREEQYNSTYRVVSVLTVLHQDWLNGKEYKCKVSNKALPAPIEKTISKAKGQPREPQVYTLPPPSEELALNELVTLTCLVKGFYPSDIAVEWLQGSQELPREKYLTWAPVLDSDGSFFLYSILRVAAEDWKKGDTFSCSVMHEALHNRFTQKSLDRSPGK
light: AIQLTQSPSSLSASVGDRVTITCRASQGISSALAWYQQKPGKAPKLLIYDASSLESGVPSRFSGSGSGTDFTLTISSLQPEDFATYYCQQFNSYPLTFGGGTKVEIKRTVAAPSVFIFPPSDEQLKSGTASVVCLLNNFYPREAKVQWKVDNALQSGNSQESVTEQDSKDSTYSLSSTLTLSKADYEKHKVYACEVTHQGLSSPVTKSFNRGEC
anti-NGF IC50 (nM), U2OS TrkA_p75 assay; construct from expiCHO-S (NGF): 0.25 nM
FGF18 EC50 (nM), BaF3/FGFR3 assay; construct from expiCHO-S (FGFR3): 0.06 nM

B7: FGF18_Fab fulranumab (HL) (other)
heavy: EENVDFRIHVENQTRARDDVSRKQLRLYQLYSRTSGKHIQVLGRRISARGEDGDKYAQLLVETDTFGSQVRIKGKETEFYLCMNRKGKLVGKPDGTSKECVFIEKVLENNYTALMSAKYSGWYVGFTKKGRPRKGPKTRENQQDVHFMKRYPKGQPELQKPFKYTTVTKGGGGSGGGGSEVQLVESGGGLVQPGGSLRLSCAASGFTLRSYSMNWVRQAPGKGLEWVSYISRSSHTIFYADSVKGRFTISRDNAKNSLYLQMDSLRDEDTAMYYCARVYSSGWHVSDYFDYWGQGILVTVSSASTKGPSVFPLAPSSKSTSGGTAALGCLVKDYFPEPVTVSWNSGALTSGVHTFPAVLQSSGLYSLSSVVTVPSSSLGTQTYICNVNHKPSNTKVDKKVEPKSC
light: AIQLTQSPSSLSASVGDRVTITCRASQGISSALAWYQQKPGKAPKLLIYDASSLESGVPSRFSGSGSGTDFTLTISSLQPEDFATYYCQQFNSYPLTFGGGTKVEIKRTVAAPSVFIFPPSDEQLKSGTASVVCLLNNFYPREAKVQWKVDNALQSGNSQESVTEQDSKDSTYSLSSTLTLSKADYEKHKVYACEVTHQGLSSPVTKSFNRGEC
anti-NGF IC50 (nM), U2OS TrkA_p75 assay; construct from expiCHO-S (NGF): 1.07 nM
FGF18 EC50 (nM), BaF3/FGFR3 assay; construct from expiCHO-S (FGFR3): 0.06 nM

B8: FGF18_Fab fasinumab (HL) (other)
heavy: EENVDFRIHVENQTRARDDVSRKQLRLYQLYSRTSGKHIQVLGRRISARGEDGDKYAQLLVETDTFGSQVRIKGKETEFYLCMNRKGKLVGKPDGTSKECVFIEKVLENNYTALMSAKYSGWYVGFTKKGRPRKGPKTRENQQDVHFMKRYPKGQPELQKPFKYTTVTKGGGGSGGGGSQVQLVQSGAEVKKPGASVKVSCKVSGFTLTELSIHWVRQAPGKGLEWMGGFDPEDGETIYAQKFQGRVTMTEDTSTDTAYMELTSLRSEDTAVYYCSTIFGVVTNFDNWGQGTLVTVSSASTKGPSVFPLAPSSKSTSGGTAALGCLVKDYFPEPVTVSWNSGALTSGVHTFPAVLQSSGLYSLSSVVTVPSSSLGTQTYICNVNHKPSNTKVDKKVEPKSC
light: DIQMTQSPSSLSASAGDRVTITCRASQAIRNDLGWYQQKPGKAPKRLIYAAFNLQSGVPSRFSGSGSGTEFTLTISSLQPEDLASYYCQQYNRYPWTFGQGTKVEIKRTVAAPSVFIFPPSDEQLKSGTASVVCLLNNFYPREAKVQWKVDNALQSGNSQESVTEQDSKDSTYSLSSTLTLSKADYEKHKVYACEVTHQGLSSPVTKSFNRGEC
anti-NGF IC50 (nM), U2OS TrkA_p75 assay; construct from expiCHO-S (NGF): 1.33 nM
FGF18 EC50 (nM), BaF3/FGFR3 assay; construct from expiCHO-S (FGFR3): 0.06 nM

B9: FGF18 SEED fasinumab (SEED-A) (other)
chain: EENVDFRIHVENQTRARDDVSRKQLRLYQLYSRTSGKHIQVLGRRISARGEDGDKYAQLLVETDTFGSQVRIKGKETEFYLCMNRKGKLVGKPDGTSKECVFIEKVLENNYTALMSAKYSGWYVGFTKKGRPRKGPKTRENQQDVHFMKRYPKGQPELQKPFKYTTVTKGGGGSGGGGSDKTHTCPPCPAPEAAGGPSVFLFPPKPKDTLMISRTPEVTCVVVDVSHEDPEVKFNWYVDGVEVHNAKTKPREEQYNSTYRVVSVLTVLHQDWLNGKEYKCKVSNKALPAPIEKTISKAKGQPFRPEVHLLPPSREEMTKNQVSLTCLARGFYPKDIAVEWESNGQPENNYKTTPSRQEPSQGTTTFAVTSKLTVDKSRWQQGNVFSCSVMHEALHNHYTQKTISLSPGK
heavy: QVQLVQSGAEVKKPGASVKVSCKVSGFTLTELSIHWVRQAPGKGLEWMGGFDPEDGETIYAQKFQGRVTMTEDTSTDTAYMELTSLRSEDTAVYYCSTIFGVVTNFDNWGQGTLVTVSSASTKGPSVFPLAPSSKSTSGGTAALGCLVKDYFPEPVTVSWNSGALTSGVHTFPAVLQSSGLYSLSSVVTVPSSSLGTQTYICNVNHKPSNTKVDKKVEPKSCDKTHTCPPCPAPEAAGGPSVFLFPPKPKDTLMISRTPEVTCVVVDVSHEDPEVKFNWYVDGVEVHNAKTKPREEQYNSTYRVVSVLTVLHQDWLNGKEYKCKVSNKALPAPIEKTISKAKGQPREPQVYTLPPPSEELALNELVTLTCLVKGFYPSDIAVEWLQGSQELPREKYLTWAPVLDSDGSFFLYSILRVAAEDWKKGDTFSCSVMHEALHNRFTQKSLDRSPGK
light: DIQMTQSPSSLSASAGDRVTITCRASQAIRNDLGWYQQKPGKAPKRLIYAAFNLQSGVPSRFSGSGSGTEFTLTISSLQPEDLASYYCQQYNRYPWTFGQGTKVEIKRTVAAPSVFIFPPSDEQLKSGTASVVCLLNNFYPREAKVQWKVDNALQSGNSQESVTEQDSKDSTYSLSSTLTLSKADYEKHKVYACEVTHQGLSSPVTKSFNRGEC
anti-NGF IC50 (nM), U2OS TrkA_p75 assay; construct from expiCHO-S (NGF): 0.29 nM
FGF18 EC50 (nM), BaF3/FGFR3 assay; construct from expiCHO-S (FGFR3): 0.14 nM
